Results as given in patent publication US20130209439A1, “INHIBITORS OF PDE4 BINDING TO HSP20” (THE UNIVERSITY COURT OF THE UNIVERSITY OF GLASGOW, priority 2010, published 2013).
Where no end group is shown, it is not given here.

Experiments:
[1] = molecular target: T1, PDE4D5-HSP20 complex (Homo sapiens, UniProt O14558); experiment: Immunoprecipitation of HSP20 probed for PDE4D5, HEK293 cell lysate; format: binding; details: HEK293 cells transfected with HSP20 and PDE4D5, increasing peptide concentrations
T1 construct: containing the open reading frame of Hsp20 in pENTR221 vector, was used to generate pcDNA6.2-Hsp20; expressed in transfected cells; host or cells: HEK293 cells
T1 sequence (O14558 1-160): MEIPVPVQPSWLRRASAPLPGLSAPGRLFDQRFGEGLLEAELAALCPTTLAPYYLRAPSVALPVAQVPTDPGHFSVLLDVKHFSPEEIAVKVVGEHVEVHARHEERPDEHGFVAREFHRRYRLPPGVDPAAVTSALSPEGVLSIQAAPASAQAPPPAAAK
Excerpt: FIG. 6. Peptide disruption of the PDE4D-HSP20 complex promotes PKA phosphorylation on Ser16. A, Upper panel. HEK293 cells were transfected with HSP20 and PDE4D5. Immunoprecipitation of HSP20 done in the presence increasing concentrations of Peptide 906 (SEQ ID NO: 36) and Peptide control (SEQ ID NO: 37) were probed for PDE4D5. Lower panel. Densitometric analysis of amount of PDE4D5 in HSP20 immunoprecipitates normalised to expression level. Data representative of n=3. B, Purified preparations of HSP20-His and PDE4D5-GST were subject to an ELISA assay containing increasing amounts of ‘Peptide 906’ and ‘peptide control’. C, Upper panel, HSP20 was transfected into HEK293 cells and treated with ‘Peptide 906’ for indicated times. Cellular lysates were blotted for HSP20 and phospho-HSP20. Middle panel, HSP20 was transfected into HEK293 cells and treated with ‘Peptide 906’ or ‘peptide control’ for indicated times. Cellular lysates were blotted for HSP20 and phospho-HSP20. Lower panel, Densitometric analysis of phosphorylation of HSP20 normalised to expression level (n=3).
HEK293B2 cells are a stable cell line overexpressing the GFP-tagged β2AR were cultured as previously described^48. […] Protein concentration of lysates were determined using the Bradford assay and all samples were equalised for protein concentration. […]

[2] = tested on: neonatal cardiac myocytes; experiment: Cardiac myocyte size by xCELLigence impedance (normalised cell index); format: cell-based, rat; details: 24 hour isoprenaline 10 μM, 30 min pre-treatment with 10 μM peptide
Description: FIG. 7. Peptide disruption of the PDE4D-HSP20 complex attenuates the hypertrophic response triggered by constant […]-agonist treatment. A, Upper panel. The area covered by isolated cardiac myocytes was used as a measure of cell size. Lower panel, Graphical depiction of the mean areas (N=100) of cells following 24 hours of indicated treatments. B, impedance measurements were used to calculate continuous normalised cell index using exCELLigence technology Normalised mean (n=4) cell index after 24 hours of indicated treatments.
The E-Plate 96 (Roche) was used for these experiments^45. This comprises a 96-well plate with integral sensor electrode arrays to measure cell impedance. […] E-plate 96 is a 96-well microtiter plate with incorporated gold cell sensor arrays in the bottom, which allows impedance inside each well to be monitored and assayed in real time. […] The impedance measured between electrodes in an individual well depends on electrode geometry, ion concentration in the well and whether or not cells are attached to the electrodes^45. In the absence of cells, electrode impedance is mainly determined by the ion environment both at the electrode/solution interface and in the bulk solution. […] Small changes in impedance can also be recorded when cells temporally change shape or size in response to agonists^46,57. […]

Substance: Peptide 906: stearoylated, cell-permeable disrupter peptide of PDE4D5 residues E468-K492 (SEQ ID NO: 36) (ENHHLAVGFKLLQEENSDIFQNLTK; also: stearoylated, site not given here)
- association between PDE4D5 and HSP20 in immunoprecipitation from cellular lysate [1]: attenuated the association between PDE4D5 and HSP20
- cell size (normalised cell index, impedance) of cardiac myocytes [2]: could be rescued
